Measured values as given in the Human Domainome abundance scans (Beltran et al. 2025).

B1: Steroid hormone receptor ERR2, residues 100 to 176; numbered along this chain, O95718 (parent)
chain: KRLCLVCGDIASGYHYGVASCEACKAFFKRTIQGNIEYSCPATNECEITKRRRKSCQACRFMKCLKVGMLKEGVRLD

Variants of: B1
Test: abundance fitness (aPCA) (normalised: wild type 0, dead -1); higher = more abundant; growth selection in yeast, the domain comes from the species named
Conditions: Homo sapiens

Abundance fitness: each site, then its substitutions
A58: F -0.377 | D -0.334 | L -0.44 | H -0.445 | T -0.518 | R -0.076 | V -0.772 | Y -0.347 | K -0.089 | Q -0.145 | M -0.227 | E -0.235 | S -0.33 | C -0.346 | N 0.044 | G -0.205 | W -0.308 | P -0.61
C56: S -0.847 | M -0.9 | F -0.936 | H -0.599 | D -1.17 | N -0.845 | G -0.718 | I -0.679 | P -0.666 | A -0.828 | W -0.722 | T -0.691 | R -0.872 | L -0.76 | E -0.627 | Y -0.884
S55: K 0.149 | R 0.22 | W 0.263 | Y 0.206 | L 0.341 | N 0.405 | P 0.257 | M 0.374 | T 0.277
C64: G -0.582 | P -0.747 | S -0.396 | T -0.658 | V -0.836 | I -0.478 | A -0.301 | F -0.686 | D -1.05 | M -0.273 | W -0.531 | E -0.561 | L -0.826 | H -1.04 | Y -0.95 | K -0.767 | N -0.483 | R -0.751
Q57: H -0.347 | I -0.633 | R -0.17 | P -0.066 | M -0.221 | V -0.213 | L -0.232 | K -0.118 | T -0.325 | C -0.152 | G 0.122 | W -0.15 | A -0.018 | N -0.246 | D -0.042 | F -0.243 | S -0.125
M62: E 0.086 | S 0.148 | G -0.059 | Q 0.04 | V -0.006 | L -0.135 | I -0.148 | R -0.026 | P -1.05 | D -0.057 | K 0.141 | T 0.106 | C -1.07 | A 0.013 | H -0.496 | W -0.136
K63: V -0.522 | L -0.55 | F -0.931 | W -0.58 | P -0.914 | G -0.534 | H -0.359 | Y -0.982 | D -0.783 | A -0.233 | S -0.611 | M -0.11 | R -0.145 | I -0.461 | N -0.605 | T -0.226 | Q -0.21 | E -0.596 | C -0.242
L65: G -0.534 | A -0.256 | F -0.433 | D -0.548 | E -0.132
F61: S -0.509 | D -1.06 | G -0.602 | M 0 | C -1.06 | I -0.074 | P -1.29 | Q -0.257 | T -0.759 | K -0.266 | E -0.892 | V -0.269 | A -0.444 | R -0.487 | W 0.125 | N -0.541
C59: M -0.631 | N -0.711 | L -0.873 | Q -0.891 | T -0.872 | A -0.686 | V -0.576 | W -0.684 | D -0.513 | R -0.755 | H -0.545 | K -0.483 | Y -0.745 | P -0.688 | F -0.451 | S -0.887 | I -0.542 | E -0.704
R60: D -0.828 | E -0.764 | V -0.098 | P -0.798 | M 0.108 | F 0.211 | L 0.183 | Q 0.173 | A -0.031 | C 0.013 | T 0.051 | H 0.254 | I -0.23 | Y 0.279 | K 0.177
